This test concerns the target T1, LAG-3 protein as used in the Biacore analysis (partner not given) (UniProt P18627 23-434, limits assumed).
T1 sequence (looked up): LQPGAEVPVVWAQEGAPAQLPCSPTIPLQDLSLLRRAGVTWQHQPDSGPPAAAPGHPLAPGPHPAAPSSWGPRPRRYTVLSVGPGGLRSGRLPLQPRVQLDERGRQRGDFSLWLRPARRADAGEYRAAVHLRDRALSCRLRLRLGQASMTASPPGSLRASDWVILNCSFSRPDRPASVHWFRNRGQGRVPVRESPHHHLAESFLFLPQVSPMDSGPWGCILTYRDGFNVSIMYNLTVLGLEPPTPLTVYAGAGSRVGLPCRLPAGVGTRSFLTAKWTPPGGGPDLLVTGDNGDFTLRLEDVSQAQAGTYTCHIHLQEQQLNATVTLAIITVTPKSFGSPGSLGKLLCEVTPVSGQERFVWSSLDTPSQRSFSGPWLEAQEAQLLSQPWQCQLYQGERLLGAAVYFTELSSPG
Briefly: Biacore (SPR). (In general: Surface plasmon resonance follows binding to a sensor surface in real time, without labels.)

B1: A9H12 (580.1E MM H12), murine IgG2a anti-human LAG-3 monoclonal antibody (antibody, V domains shown)
VH: QVQLKESGPGLVAPSQSLSITCTVSGFSLTAYGVNWVRQPPGKGLEWLGMIWDDGSTDYNSALKSRLSISKDNSKSQVFLKMNSLQTDDTARYYCAREGDVAFDYWGQGTTLTVSS
VL: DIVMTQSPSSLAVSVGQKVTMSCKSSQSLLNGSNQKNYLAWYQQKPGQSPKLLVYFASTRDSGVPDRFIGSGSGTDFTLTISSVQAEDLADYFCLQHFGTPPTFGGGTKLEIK
notes: Murine IgG2a from hybridoma; also called A9H12 LAG-3 mAb; hybridoma CNCM I-3755
As a reminder, the Kd is the concentration at which binding is half-saturated. A high value points to a looser complex. As a reminder, the koff is a measure of how fast the partners let go of each other. A lower koff goes with slow dissociation. By kon is commonly meant the second-order rate constant of association. Low readings indicate slower complex formation, high ones faster complex formation. With B1, binding was put at a Kd of 0.829 nM, the koff came to 0.00143 s⁻¹ and the kon was determined as 1.72e+06 M⁻¹ s⁻¹.

B2: IMP731 (chimeric A9H12 with human IgG1 Fc region) (antibody, V domains shown)
VH: B1 VH
VL: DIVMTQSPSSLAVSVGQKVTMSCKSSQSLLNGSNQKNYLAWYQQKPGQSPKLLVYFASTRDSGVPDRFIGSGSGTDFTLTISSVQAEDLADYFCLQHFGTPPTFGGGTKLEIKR
notes: also called ImmuTune IMP731; IMP371 [sic]
The molecule B2 registered a Kd of 0.551 nM, a koff of 0.00112 s⁻¹ and a kon of 2.03e+06 M⁻¹ s⁻¹.

These data come from US20110070238A1 (published 2011).
